This note sets out measurements from KR20210053410A.

The test deals with 개 인플루엔자 바이러스 H3N2 (Canine influenza virus H3N2). The test can be described thus: cell-based or functional assay.

B1: 개 인플루엔자 바이러스 단일클론항체 3E2 (antibody, V domains shown)
VH: EVKLVESGGGLVQPGGSLRLSCATSGFTFTDYYMSWVRQPPGKALEWLGFIRNKANGYTTEYSASVKGRFTISRDNSQSILYLQMNTLRPEDSATYYCARDTPVARGVCLLGQGTLVTVSA
VL: DIVMTQSPSSLAVSAGEKVTMSCKSSQSLLNSRTRQNYLAWYQQKPGQSPKLLIYWASTRESGVPDRFTGSGSGTDFTLTISSVQAEDLAVYYCKQSYSLWTFGGGTKLEIK
For B1, the HI titer (3E2 mAb 하이브리도마 상층액) was determined as 128 and the HI titer (3E2 mAb) is 131000.
